“Also recorded” adds a separate entry of the source.
Legend:
[1] = tested on: BliNTR, NTR from Bacillus licheniformis; details: Emptage et al., 2009; read-out: Km^NADH; cited from earlier work
[2] = tested on: E. coli NfnB nitroreductase, wild type; details: Knox et al., 1992; read-out: Km^NADH; cited from earlier work
[3] = tested on: E. coli NfnB variant N71S/F124K; details: Searle et al., 2004 and Race et al., 2007; read-out: Km^NADH; cited from earlier work
[4] = tested on: NC(=O)c1cc(N2CC2)c([N+](=O)[O-])cc1[N+](=O)[O-]; experiment: CB1954 nitroreductase activity, HPLC, purified His-tagged HsoNTR; assay type: biochemical, Haemophilus somnus 129PT; details: pH 7.0; for kcat: 37° C.
Description: (§1) Genes encoding homologs of E. coli NfnB and Bacillus amyloliquefaciens YwrO from several bacteria were cloned into an E. coli expression vector for screening (see Methods below). These were the NfnB homolog from Neisseria meningitidis MC58 (‘NmeNTR’, accession number Q9K022), the NfnB homolog from Haemophilus somnus 129PT (‘HsoNTR’, accession number ZP_00122352.1), the NfnB homolog from Burkholderia fungorum LB400 (‘BfuNTR’, accession number ZP_00029570.1), the YwrO homolog from Vibrio cholerae (‘VchYwrO’, accession number Q9KNX3), the YwrO homolog from Rhodobacter sphaeroides (‘RspYwrO’, accession number ZP_00007082.1), and two YwrO homologs from Pseudomonas aeruginosa (‘PaeYwrO1’, accession number Q9HUJ0; and ‘PaeYwrO2’, accession number Q9I4B3).
(§2) For determination of CB1954 nitroreductase kinetic parameters, six-histidine affinity-tagged enzymes were purified from cell lysates purified using a Novagen His-Bind kit in accordance with the manufacturer's instructions.
(§3) CB1954 nitroreductase activity was determined essentially as described by Anlezark (6). Reaction mixtures containing 500 μM NADH or NADPH and a small quantity of enzyme (either crude lysate or purified enzyme) were assembled in pre-warmed (to 37° C.) 100 mM sodium phosphate buffer (pH 7.0), and started with the addition of 100 μM CB1954 and prompt mixing.
(§4) To determine initial reaction rates during preliminary screening of CB1954 nitroreductase candidates, aliquots of the reaction mixtures taken at various times were injected into a Partisphere SCX (100×4.7 mm) HPLC column and eluted isocratically at 2 ml/min with 130 mM NaH2PO4 (pH 5.0). Eluates were continuously monitored at 260 nm and 325 nm, and the absorbance spectra of eluting components recorded using a photodiode array detector. Peaks were identified with reference to standards and/or by their known absorbance spectra (7) and anticipated column retention times as appropriate. Rates were determined based on the decrease in the area under the CB1954 peak over time, normalised to the known starting concentration of 100 μM using the peak from the zero timepoint sample.
(§5) To determine initial reaction rates and CB1954 nitroreduction products in later experiments with purified proteins, peaks were identified as before, and rates were determined based on the increase in the area under the 4-hydroxylamine derivative peak over time, normalised using enzymatically-synthesised 4-hydroxylamine standards.
(§6) NmeNTR and HsoNTR were each affinity-tagged, over-expressed, purified, and the CB1954 nitroreductase activities of the purified proteins characterized using the HPLC assay. The reaction products and kinetic parameters of these enzymes with respect to CB1954 and NADH were determined (Table 1). […]

[5] = tested on: NC(=O)C1=CN([C@@H]2O[C@H](COP(=O)(O)OP(=O)(O)OC[C@H]3O[C@@H](n4cnc5c(N)ncnc54)[C@H](O)[C@@H]3O)[C@@H](O)[C@H]2O)C=CC1; experiment: as above; assay type: biochemical, Haemophilus somnus 129PT; details: other: 37° C., pH 7.0
Description: as §1, §2, §3, §4, §5, §6

[6] = tested on: NC(=O)c1cc(N2CC2)c([N+](=O)[O-])cc1[N+](=O)[O-]; experiment: CB1954 nitroreductase activity, HPLC, purified His-tagged NmeNTR; assay type: biochemical, Neisseria meningitidis MC58; details: pH 7.0
Description: as §1, §2, §3, §4, §5
(§7) NmeNTR and HsoNTR were each affinity-tagged, over-expressed, purified, and the CB1954 nitroreductase activities of the purified proteins characterized using the HPLC assay. The reaction products and kinetic parameters of these enzymes with respect to CB1954 and NADH were determined (Table 1). […] Moreover, the kinetic parameters of HsoNTR and NmeNTR differ dramatically from those of E. coli NfnB and other published enzymes (Table 1). […] NmeNTR would therefore approach saturation with CB1954 in a therapeutic regime using the maximum clinically-recommended dose, so the prodrug would be efficiently activated and high levels of tumour-specific cytotoxicity achieved.

[7] = tested on: NC(=O)C1=CN([C@@H]2O[C@H](COP(=O)(O)OP(=O)(O)OC[C@H]3O[C@@H](n4cnc5c(N)ncnc54)[C@H](O)[C@@H]3O)[C@@H](O)[C@H]2O)C=CC1; experiment: as above; assay type: biochemical, Neisseria meningitidis MC58; details: other: 37° C., pH 7.0
Description: as §1, §2, §3, §4, §5, §7

[8] = CB1954 nitroreductase activity of purified His-tagged proteins (HPLC assay); assay type: biochemical
Procedure: as §2, §3, §5, §7

[9] = Screen for CB1954 nitroreductase activity in E. coli lysates (HPLC); assay type: biochemical; details: 100 μM CB1954
Procedure: To screen for CB1954 nitroreductase activity of each of the functionally expressed genes, lysates of E. coli cells containing the NfnB or YwrO homolog expression plasmid were added to reaction mixtures containing CB1954 and the concentration of CB1954 was monitored by HPLC (see Methods below). […] Such activity was not observed in the lysates containing VchYwrO, PaeYwrO1 or PaeYwrO2.
(§8) Lysates of E. coli clones containing pMTL1015-based enzyme expression plasmids were prepared for preliminary characterisation of enzyme activities. […]
as §3
To determine initial reaction rates during preliminary screening of CB1954 nitroreductase candidates, aliquots of the reaction mixtures taken at various times were injected into a Partisphere SCX (100×4.7 mm) HPLC column and eluted isocratically at 2 ml/min with 130 mM NaH2PO4 (pH 5.0). Eluates were continuously monitored at 260 nm and 325 nm, and the absorbance spectra of eluting components recorded using a photodiode array detector. […]

[10] = Specific menadione reductase activity in lysates of E. coli cells (screen for functional expression); assay type: biochemical; details: E. coli lysates containing expression plasmid
Procedure: In an initial screen for functional expression of each of the cloned genes, specific menadione reductase activity was determined in lysates of E. coli cells containing the NfnB or YwrO homolog expression plasmid. Enzymes from these families are expected to be NAD(P)H-dependent quinone reductases regardless of their nitroreductase activity against CB1954, and a photospectrometric menadione reductase assay is available (see Methods below), so this approach provides a convenient means to assess functional expression.
as §8
Menadione reductase activity was determined by the method of Knox (5). […] Reduction of cytochrome C was recorded by measuring increase in absorbance at 550 nm. Specific activities were calculated using the total protein concentrations of cell lysates, which were determined using the Bradford reagent (Sigma-Aldrich). Aliquots of cell lysates were mixed with 250 μl of Bradford reagent and incubated in the dark at room temperature for 5 min before absorbance was measured at 595 nm. Absorbance values were compared to those obtained using known concentrations of bovine serum albumin.

[11] = other: CB1954, cofactor NADPH, 37° C.

For `NC(=O)C1=CN([C@@H]2O[C@H](COP(=O)(O)OP(=O)(O)OC[C@H]3O[C@@H](n4cnc5c(N)ncnc54)[C@H](O)[C@@H]3O)[C@@H](O)[C@H]2O)C=CC1` [NADH], the Km [1] is listed as 820 µM, the Km [2] is listed as 6 µM and the Km [3] is listed as 5 µM.

With “HsoNTR, Haemophilus somnus 129PT nitroreductase (NfnB homolog, ZP_00122352.1), wild type, SEQ ID NO: 2 (Histophilus somni)” the Km ([4]; other: 37° C.) was 22.03 µM, the kcat ([4]; other: CB1954, cofactor NADH) was 3.5 (NADH) S^−1 and the kcat ([4]; other: CB1954, cofactor NADPH) was 13.13 (NADPH) S^−1. The Km [5] was 644 µM.

With “NmeNTR, Neisseria meningitidis MC58 nitroreductase (NfnB homolog, Q9K022), wild type, SEQ ID NO: 1 (Neisseria meningitidis MC58)” the Km ([6]; other: 37° C.) was 2.47 µM, the kcat ([6]; other: 37° C.) was 4.04 (NADH) and the kcat/Km ([6]; other: 37° C.) was 1.636 (NADH). The kcat [6, 11] was 15.23 (NADPH), the kcat/Km [6, 11] was 6.166 (NADPH) and the Km [7] was 188 µM.

B1: HsoNTR: NfnB homolog nitroreductase from Haemophilus somnus 129PT, accession ZP_00122352.1, SEQ ID NO: 2 (protein, listed as Haemophilus somnus)
chain: MTTISKEHVLDSFNRRASTRYYDPNKKISNEDFSYVLEFARLSPSSVGSEPWHFLVIQNPELRAKLKPVSWGMATQIDDASHLVVILAKKNARYDSEFLVQSMKRRGLSGEQIQATKEKYHLFQAEHMKTLENDRTLFDWASKQTYIALANMLTGAALIGIDSCPIEGFNYEKVNQILTDAGVLDSDEWGVSVMATFGYRAKEIKPKSRKSLDEIVTWVK
For B1, the “Kcat/K^CB1954” value ([8]; NADH) was 0.159 (NADH) s^−1μM^−1, the “Kcat/K^CB1954” value ([8]; NADPH) was 0.596 (NADPH) s^−1μM^−1 and the “CB1954 nitroreductase activity (decrease in CB1954 concentration)” value [9] was “caused a decrease in CB1954 concentration; also recorded: rapidly consumed”. For the same molecule, the “specific menadione reductase activity of lysates versus control” value [10] was “significantly elevated above the control”.

B2: NmeNTR: NfnB homolog nitroreductase from Neisseria meningitidis MC58, accession Q9K022, SEQ ID NO: 1 (protein, listed as Neisseria meningitidis)
chain: MTVLSKEQVLSAFKNRKSCRHYDAARKISAEDFQFILELGRLSPSSVGSEPWQFIVVQNPEIRQAIKPFSWGMADALDTASHLVVFLAKKNARSDSPFMLESLKRRGVTEPDAVAKSLARYQAFQADDIKILDDSRALFDWCCRQTYIALANMMTGAAMAGIDSCPVEGFNYAEMERILSGQFGLFDAAEWGVSVAATFGYRVQEIATKARRPLEETVIWA
For B2, the Km [8] was under 6.3 µM, the “Km^CB1954 relative to the lowest previously reported (NfsA)” value [8] was “seven-fold lower” and the “Kcat/K^CB1954” value ([8]; NADH) was 1.636 (NADH) s^−1μM^−1. The “Kcat/K^CB1954” value ([8]; NADPH) was 6.166 (NADPH) s^−1μM^−1, the “CB1954 nitroreductase activity (decrease in CB1954 concentration)” value [9] was “caused a decrease in CB1954 concentration; also recorded: rapidly consumed” and the “specific menadione reductase activity of lysates versus control” value [10] was “significantly elevated above the control”.

Source: US10183062B2, “Treatment for cancer” (The University of Nottingham, priority 2013, dated 2019)
